Experimental findings from patent US20220267440A1 (ABSOS, published 2022) are described below.

Changes are numbered by the printed parent chain.

Experiment [1] deals with T1, human CD47 extracellular domain with a histidine- (HIS-) tag (Sino Biological, China) (human, UniProt Q08722 19-139).
T1 construct: extracellular domain; also called huCD47; huCD47 protein (Sino Biological, China 10161-H08H); not shown: histidine tag
Kind of experiment: competition ELISA on huCD47 after 1A. In general terms: ELISA stands for enzyme-linked immunosorbent assay.

Experiment [2] has as its target T1, human CD47 extracellular domain with a …. Kind of experiment: competition ELISA on huCD47 after 27A.
Protocol: (§1) A competition ELISA was performed to establish competitive binding bins. […] After washing, wells were incubated with an AlivaMab monoclonal antibody representing one of seven unique competition bins. After 1 hour the wells were washed and incubated with individual clonal anti-huCD47 AlivaMab hybridoma supernatants. […] Individual AlivaMab Mouse antibodies that were unable to bind in the presence of a mouse antibody are considered to be in the same epitope bin as that particular mouse antibody.
For experiment [3] the target is unchanged. As to the kind of experiment: competition ELISA on huCD47 after 35A.
Protocol: as §1
The target is the same in experiment [4]. As to the kind of experiment: competition ELISA on huCD47, row G1 Alone.
Protocol: as §1
For experiment [5] the target is unchanged. As to the kind of experiment: competition ELISA on huCD47 after 141A.
Protocol: as §1
Experiment [6] has as its target T2, recombinant CD47-Fc (Sino Biologics) (human, UniProt Q08722 19-139).
T2 construct: Bought reagent; also called human CD47-Fc; not shown: Fc
Kind of experiment: competition ELISA: HIS-tagged SIRP α binding to plate-bound CD47-Fc, antibody titrated.

The target in experiment [7] is T1, human CD47 extracellular domain with a …. As to the kind of experiment: competition ELISA on huCD47 after 10A; cross-hatched cell.
Protocol: as §1
Experiment [8] has the same target. As to the kind of experiment: competition ELISA on huCD47 after 156A.
Protocol: as §1
For experiment [9] the target is unchanged. As to the kind of experiment: competition ELISA on huCD47 after 10A.
Protocol: as §1
Experiment [10] has as its target T3, recombinant human CD47 (Novoprotein cat no. C321, lot no. 0329689) (human, UniProt Q08722 19-139).
T3 construct: Bought reagent
As to the kind of experiment: SPR (ProteOn XPR36), mAb captured on anti-mouse Fc, CD47 as analyte, 25 C, 1:1 model.
Protocol: (§2) Binding kinetics were measured at 25° C. using a BioRad ProteOn XPR36 optical biosensor equipped with GLM sensor chips and equilibrated with running buffer (HBS, 0.005% TWEEN-20, 0.1 mg/mL BSA, pH 7.4).
(§3) CD47 was tested in a three-fold dilution series starting at 100 nM.

The target of experiment [11] is T3, recombinant human CD47 (Novoprotein cat …). As to the kind of experiment: SPR summary table, 25 C.
Protocol: as §2, §3

B1: anti-CD47 AlivaMab antibody 161 (antibody, IgG1, V domains shown)
VH: QVQLQESGPGLVKPSETLSLTCTVSGGSISSYYWSWIRQPPGKGLEWIGYIYYSGSTNYNPSLKSRVTISVDTSKNQFSLKLSSVTAADTAVYYCARSRYFDLWGRGTLVTVSS
VL: DIQMTQSPSAMSTSVGDRVTITCRASQGISNFLAWFQQKPGKVPKRLIYAASSLQSGVPSRFSGSGSGTEFTLTISSLQPEDFATYYCLQHNSYPYTFGQGTKLEIK
notes: Chimeric AlivaMab Mouse mAb from hybridoma: human V, CH1 and upper hinge, mouse middle hinge, CH2 and CH3, human kappa light chain; also called clone 161; mAb 161
In the case of B1, the “competition matrix cell (no name or unit printed)” value in experiment [1] amounted to 106; in [2] it was 105; in experiment [3], 109; in experiment [4], 100; in experiment [5] it was 107; in experiment [7] it was 89. In addition, the “competition matrix cell (no name or unit printed)” value in experiment [8] worked out at 112. Moreover, the IC50 in experiment [6] amounted to 3 nM.

B2: anti-CD47 AlivaMab antibody 14 (antibody, IgG1, V domains shown)
VH: B1 VH with S98K, Y100G, F101L, L103I, R106Q, L109M
VL: not shown
notes: Chimeric AlivaMab Mouse mAb from hybridoma: human V, CH1 and upper hinge, mouse middle hinge, CH2 and CH3, human kappa light chain; also called clone 14; mAb 14
Regarding B2, in experiment [6], the IC50 was found to be 3.5 nM.

B3: anti-CD47 AlivaMab antibody 143 (antibody, IgG1, V domains shown)
VH: QVQLQESGPGLVKPSETLSLTCTVSGGSINNYYWSWIRQPPGKGLEWIGYIYYSGSTNYNPSLRSRVTISVDTSKNQFSLKLSSVAAADTAVYYCARQKGMDVWGQGTTVTVSS
VL: B1 VL with T13A, F32Y, Y96P, L104V
notes: Chimeric AlivaMab Mouse mAb from hybridoma: human V, CH1 and upper hinge, mouse middle hinge, CH2 and CH3, human kappa light chain; also called clone 143; mAb 143
Regarding B3, in experiment [6], the IC50 is 96 nM.

B4: anti-CD47 AlivaMab antibody 85 (antibody, IgG1, V domains shown)
VH: QVQLQESGPGLVKASETLSLTCTVSGGSISGYYWSWIRQPAGKGLEWIGRIYNSGSTNYNPSLKSRVTMSVDTSKNQFSLKLSSVTAADTAVYYCARQTYLDYWGQGTLVTVSS
VL: B1 VL with T13A, N31I, F32Y, Y96L, Q100G, L104V
notes: Chimeric AlivaMab Mouse mAb from hybridoma: human V, CH1 and upper hinge, mouse middle hinge, CH2 and CH3, human kappa light chain; also called clone 85; mAb 85
Consider B4, for which the “competition matrix cell (no name or unit printed)” value stood at 98 in [1]; 98 in experiment [2]; 104 in [3]; 100 in experiment [4]; 102 in experiment [5]; 83 in experiment [7]. Further, in experiment [8], the “competition matrix cell (no name or unit printed)” value was determined as 95. Moreover, the IC50 in experiment [6] is 4.9 nM.

B5: anti-CD47 AlivaMab antibody 106 (antibody, IgG1, V domains shown)
VH: QVQLQGSGPGLVKPSETLSLTCTVSGGSINNYYWSWIRQPPGKGLEWIGYIYYSGSTNSNPSLKSRVTISVDTSKNQFSLKLNSVTAADTAVYYCARKRDAFDIWGQGTMVTVSS
VL: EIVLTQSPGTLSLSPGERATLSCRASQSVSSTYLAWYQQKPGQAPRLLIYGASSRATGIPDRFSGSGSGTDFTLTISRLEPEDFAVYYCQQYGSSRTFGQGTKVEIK
notes: Chimeric AlivaMab Mouse mAb from hybridoma: human V, CH1 and upper hinge, mouse middle hinge, CH2 and CH3, human kappa light chain
With B5, the half-maximal inhibitory concentration (IC50) in [6] is 2.9 nM.

B6: anti-CD47 AlivaMab antibody 107 (antibody, IgG1, V domains shown)
VH: QVQLQESGPGLMKPSETLSLTCTVSGGSISSYYWTWIRQPPGKGLEWIGYIYYSGSTNYNPSLKSRVTISVDTSKNQFSLKLSSVTAADTAVYYCARGRGALTAWGQGTLVTVSS
VL: DIQLTQSPSFLSASVGDRVTITCRASQDIGSYLAWCQQKPGKAPKLLIYAASTLQGGVPSRFSGSGSGTEFTLTISSLQPEDFATYYCQQLNSYPLTFGGGTKVEIK
notes: as for B5
Turning to B6, the “competition matrix cell (no name or unit printed)” value in experiment [2] was 106; in experiment [4], 100; in experiment [9], 100; in experiment [7], 85. In [6], the IC50 is 2.7 nM. For the same molecule, the figures for the Kd in [10] and in [11] were 0.163 nM and 0.16 nM, respectively. For the same molecule, the koff in experiment [10] and in [11] was 0.00093 s⁻¹ throughout. Also, the on-rate constant (kon) in [10] and in experiment [11] was 5.7e+06 M⁻¹ s⁻¹ in each case.

B7: anti-CD47 AlivaMab antibody 90 (antibody, IgG1, V domains shown)
VH: B6 VH with M12V, S30N, S31N, T35S, N60H, S83T, Y93F, G100R
VL: B6 VL with L4V, D28G, G30S, C36Y, G56S, V104M
notes: Chimeric AlivaMab Mouse mAb from hybridoma: human V, CH1 and upper hinge, mouse middle hinge, CH2 and CH3, human kappa light chain; also called clone 90; mAb 90
Take B7: the 50% inhibitory concentration (IC50) in experiment [6] was 53.6 nM.

B8: anti-CD47 AlivaMab antibody 91 (antibody, IgG1, V domains shown)
VH: B5 VH with G6E, N30S, N31T, S56T, S59Y, N83S
VL: EIVLTQSPGTLSLSPGERATLSCRASQSVSSTYLAWSQQKPGQAPRLLIYGASSRATGIPDRFSGSGSGTDFTLTISRLEPEDFAVYYCQQYGSSRTFGQGTKVEIK
notes: Chimeric AlivaMab Mouse mAb from hybridoma: human V, CH1 and upper hinge, mouse middle hinge, CH2 and CH3, human kappa light chain; also called clone 91; mAb 91
Regarding B8, the IC50 in experiment [6] is 2.1 nM. Moreover, in experiment [10], the Kd was determined as 0.154 nM, the dissociation rate constant (koff) came to 0.00111 s⁻¹ and the kon was 7.2e+06 M⁻¹ s⁻¹. Also, in experiment [11], the Kd was 0.15 nM, the dissociation rate constant (koff) was 0.00111 s⁻¹ and the kon was 7.2e+06 M⁻¹ s⁻¹.

B9: anti-CD47 AlivaMab antibody 101 (antibody, IgG1, V domains shown)
VH: B6 VH with M12V, S31F, Y50F
VL: not shown
notes: as for B5
For B9, the “competition matrix cell (no name or unit printed)” value was determined as 100 in experiment [4], 92 in [9] and 61 in experiment [7]. Further, in experiment [6], the half-maximal inhibitory concentration (IC50) amounted to 15 nM.

B10: anti-CD47 AlivaMab antibody 153 (antibody, IgG1, V domains shown)
VH: B5 VH with G6E, N31Y, S59Y, N83S, D100S, A101S, F102Y, I104Y, M110L
VL: B1 VL with T13A, F32Y, K45R, Y96W, L104V
notes: Chimeric AlivaMab Mouse mAb from hybridoma: human V, CH1 and upper hinge, mouse middle hinge, CH2 and CH3, human kappa light chain; also called clone 153; mAb 153
As for B10, the IC50 in experiment [6] came to 27.9 nM.

B11: anti-CD47 AlivaMab antibody 144 (antibody, IgG1, V domains shown)
VH: B6 VH with M12V, T35S, S56T, G98K, A101E, L102F, T103D, A104Y
VL: DIQMTQSPSSVSASEGDRVTITCRASQGISRWLAWYQQKPGKAPKLLIYAASSLQSGVPSRFSGSGSGTDFTLTISSLQPEDFATYYCQQANSFPLTFGGGTKVEIK
notes: Chimeric AlivaMab Mouse mAb from hybridoma: human V, CH1 and upper hinge, mouse middle hinge, CH2 and CH3, human kappa light chain; also called clone 144; mAb 144
B11: the IC50 in [6] was 10 nM.

B12: anti-CD47 AlivaMab antibody 10 (antibody, IgG2a, V domains shown)
VH: B5 VH with G6E, N30R, N31T, S59Y, N83S, R99K, D100G
VL: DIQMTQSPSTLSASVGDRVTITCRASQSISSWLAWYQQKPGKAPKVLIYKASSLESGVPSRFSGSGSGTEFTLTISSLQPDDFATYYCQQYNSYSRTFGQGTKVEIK
notes: Chimeric AlivaMab Mouse mAb from hybridoma: human V, CH1 and upper hinge, mouse middle hinge, CH2 and CH3, human kappa light chain; also called clone 10; mAb 10
As for B12, the 50% inhibitory concentration (IC50) in experiment [6] came to 4.7 nM.

B13: anti-CD47 AlivaMab antibody 87 (antibody, IgG1, V domains shown)
VH: B6 VH with M12V, T35S, S83N, G98K, G100A, A101F, T103D, A104Y
VL: B11 VL with V11L, E15V, R31N, W32Y, Y36F, L46S, S56G, R61K, A91Y, F94Y
notes: Chimeric AlivaMab Mouse mAb from hybridoma: human V, CH1 and upper hinge, mouse middle hinge, CH2 and CH3, human kappa light chain; also called clone 87; mAb 87
Take B13: the half-inhibitory concentration (IC50) in experiment [6] amounted to 3 nM.

B14: anti-CD47 AlivaMab antibody 5 (antibody, IgG1, V domains shown)
VH: B6 VH with M12V, T35S, R99K, A101G, L102T, T103D, A104Y
VL: B11 VL with E15V, R31S, L96R, G100Q
notes: Chimeric AlivaMab Mouse mAb from hybridoma: human V, CH1 and upper hinge, mouse middle hinge, CH2 and CH3, human kappa light chain; also called clone 5; mAb 5
As to B14, the results for the “competition matrix cell (no name or unit printed)” value in experiment [3], in [9] and in experiment [7] were 97, 93 and 73, respectively. Besides, the IC50 in [6] was 3.5 nM.

B15: anti-CD47 AlivaMab antibody 102 (antibody, IgG1, V domains shown)
VH: B5 VH with G6E, N30S, S59Y, N83S, A101T
VL: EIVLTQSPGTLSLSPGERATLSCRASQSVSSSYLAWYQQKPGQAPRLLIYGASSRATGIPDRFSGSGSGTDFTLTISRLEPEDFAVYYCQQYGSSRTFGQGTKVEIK
notes: as for B5
Consider B15, for which, in [6], the half-inhibitory concentration (IC50) is 2.3 nM. For the same molecule, in experiment [10], the Kd came out at 0.32 nM, the koff was determined as 0.00221 s⁻¹ and the on-rate constant (kon) came out at 6.9e+06 M⁻¹ s⁻¹. Further, in experiment [11], the dissociation constant Kd turned out to be 0.32 nM, the dissociation rate constant (koff) was found to be 0.00221 s⁻¹ and the kon came out at 6.9e+06 M⁻¹ s⁻¹.

By IC50 is commonly meant the concentration that inhibits the measured activity by half. For orientation: Kd means the free concentration of one partner at which half of the binding sites on the other are occupied at equilibrium, for simple one-to-one binding. What is called koff is a measure of how fast the partners let go of each other. By kon is commonly meant the second-order rate constant of association.
